In PMC10294715, “Single-cell RNA-seq uncovers dynamic processes orchestrated by RNA-binding protein DDX43 in chromatin remodeling during spermiogenesis”:

Target: DDX43-KI (Mus musculus, UniProt D3Z6P9 1-646, E395Q)
Assay: EMSA; EMSA: 10 nM biotin-RNA, 50 mM Tris-HCl pH 7.5, 100 mM KCl, 2.5% glycerol, 0.05% NP-40, 4 mM EDTA, 1 mM DTT, RiboLock 2 U, 37 C 30 min; 8% native TBE PAGE at 4 C; G4 folded in 50 mM Tris-HCl pH 7.5, 150 mM KCl, 0.1 mM EDTA
Conditions: protein: recombinant; tags: His tag (Ni-NTA, pET28a); label: 3' biotin; single strand

Chain of DDX43-KI (D3Z6P9 entry or part of it E395Q): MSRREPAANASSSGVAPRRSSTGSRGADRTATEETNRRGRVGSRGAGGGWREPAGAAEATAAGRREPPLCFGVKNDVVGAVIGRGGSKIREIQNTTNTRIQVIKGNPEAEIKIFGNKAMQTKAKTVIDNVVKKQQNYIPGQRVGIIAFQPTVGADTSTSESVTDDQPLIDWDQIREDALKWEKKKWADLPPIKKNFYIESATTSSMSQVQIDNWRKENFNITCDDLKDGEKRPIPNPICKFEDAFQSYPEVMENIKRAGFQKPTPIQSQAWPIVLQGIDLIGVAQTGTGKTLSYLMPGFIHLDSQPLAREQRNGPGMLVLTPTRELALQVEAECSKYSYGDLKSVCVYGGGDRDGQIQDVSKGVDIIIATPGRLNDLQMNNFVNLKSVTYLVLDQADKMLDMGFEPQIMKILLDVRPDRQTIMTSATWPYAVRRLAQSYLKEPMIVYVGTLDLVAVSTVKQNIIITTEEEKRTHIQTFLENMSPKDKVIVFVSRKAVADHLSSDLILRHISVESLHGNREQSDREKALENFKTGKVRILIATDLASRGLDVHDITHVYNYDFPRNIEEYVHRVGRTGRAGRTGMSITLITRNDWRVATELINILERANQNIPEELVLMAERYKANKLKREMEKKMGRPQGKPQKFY

ACCGCUGCCGUCGCUCCG (ssRNA) [ssRNA]
binding result: no binding
